Results taken from publication PMC11059001 (2024).

Target: complement C1q (human, UniProt P02745;P02746;P02747)
Test: MST

complement C1q, sequence (P02745 23-245, chain 1 of 3): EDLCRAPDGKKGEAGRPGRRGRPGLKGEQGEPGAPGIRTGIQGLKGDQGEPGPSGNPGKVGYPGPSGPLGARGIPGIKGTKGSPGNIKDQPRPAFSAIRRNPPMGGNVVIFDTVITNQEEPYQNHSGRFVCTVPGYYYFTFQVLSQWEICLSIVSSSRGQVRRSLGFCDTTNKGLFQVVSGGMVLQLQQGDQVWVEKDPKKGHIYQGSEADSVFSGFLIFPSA
complement C1q, sequence (P02746 28-253, chain 2 of 3): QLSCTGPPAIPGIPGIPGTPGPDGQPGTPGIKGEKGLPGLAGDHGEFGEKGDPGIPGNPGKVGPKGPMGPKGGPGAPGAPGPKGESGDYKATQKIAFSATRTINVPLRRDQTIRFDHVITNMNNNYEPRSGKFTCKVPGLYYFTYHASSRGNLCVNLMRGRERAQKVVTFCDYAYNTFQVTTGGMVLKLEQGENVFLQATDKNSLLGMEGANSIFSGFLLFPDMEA
complement C1q, sequence (P02747 29-245, chain 3 of 3): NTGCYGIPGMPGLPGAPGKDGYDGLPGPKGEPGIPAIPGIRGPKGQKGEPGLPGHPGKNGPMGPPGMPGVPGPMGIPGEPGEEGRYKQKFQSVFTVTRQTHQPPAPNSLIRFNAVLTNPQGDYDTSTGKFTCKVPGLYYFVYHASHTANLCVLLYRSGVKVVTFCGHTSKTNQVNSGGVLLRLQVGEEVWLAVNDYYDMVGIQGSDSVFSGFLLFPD

B1: TsCRT^Δ mutant Y132A/N158A (domain or fragment)
chain: EPTIYLKETFDDGDAWKERWVQSKHKDDYGEWQLSHGKLFADENDMGLKTMQDARFYSLSRKFDKVVDNKDKPLVIVYTVKHEQDIDCGGGYIKLMLENTDLEDFNSDTPARIMFGPDICGPEKRAVHSILWHDGKAYEKRKNAIAMADIFTHAYKLIIFPNNSYEIWVNNDKEAYGRLEDDWTMTEPGSGPVPELYRYKGLGAIGFELWQVKSGTIFDNILITDDPEYAKEFIDKQLEALRPIEKVESDK
modifications: fluorescent label RED-NHS (MO-L011 Monolith Protein Labelling Kit) in the MST assays; chain labelled not stated | fluorescent label RED-NHS (MO-L011 Monolith Protein Labelling Kit) in the MST assays; chain labelled not stated | fluorescent label RED-NHS (MO-L011 Monolith Protein Labelling Kit) in the MST assays; chain labelled not stated
  Kd: 8.89 µM
